Here are results for 1 molecule from paper PMC3917317 (Cell, 2013).

The target of assay [1] is T1, His-EcGlpG C104A+H254A (inactive mutant) (Escherichia coli, UniProt P09391 1-276, C104A | H254A).
T1 sequence (looked up): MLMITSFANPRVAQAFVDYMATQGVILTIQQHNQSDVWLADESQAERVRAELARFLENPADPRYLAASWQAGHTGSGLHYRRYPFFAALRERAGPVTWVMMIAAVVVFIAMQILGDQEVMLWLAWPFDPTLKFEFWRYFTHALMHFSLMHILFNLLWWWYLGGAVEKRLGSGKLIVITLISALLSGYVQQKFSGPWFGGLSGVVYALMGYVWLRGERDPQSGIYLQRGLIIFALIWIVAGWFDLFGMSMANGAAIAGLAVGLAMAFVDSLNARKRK
The experiment in a line: pull-down.

For assay [2], the target named is HA-EcGlpG S201A+H254A (inactive mutant) (Escherichia coli, UniProt P09391 1-276, S201A | H254A). Description: SEC. (SEC sorts molecules by how far they enter the pores of the column.)

The star is where a group is joined. FITC = O=C1OC2(c3ccc(O)cc3Oc3cc(O)ccc32)c2ccc(NC(=S)*)cc21; βAla = NCCC(=O)O Bounds are passed on as bounds.

B1: FITC-TatA (Providencia stuartii TatA residues 1-33 of 97) (peptide)
chain: {FITC-βAla}-MESTIATAAFGSPWQLIIIALLIILIFGTKKLR-NH2
SMILES: CC[C@H](C)[C@H](NC(=O)[C@H](CC(C)C)NC(=O)[C@@H](NC(=O)[C@@H](NC(=O)[C@H](CC(C)C)NC(=O)[C@H](CC(C)C)NC(=O)[C@H](C)NC(=O)[C@@H](NC(=O)[C@@H](NC(=O)[C@@H](NC(=O)[C@H](CC(C)C)NC(=O)[C@H](CCC(N)=O)NC(=O)[C@H](Cc1c[nH]c2ccccc12)NC(=O)[C@@H]1CCCN1C(=O)[C@H](CO)NC(=O)CNC(=O)[C@H](Cc1ccccc1)NC(=O)[C@H](C)NC(=O)[C@H](C)NC(=O)[C@@H](NC(=O)[C@H](C)NC(=O)[C@@H](NC(=O)[C@@H](NC(=O)[C@H](CO)NC(=O)[C@H](CCC(=O)O)NC(=O)[C@H](CCSC)NC(=O)CCNC(=S)Nc1ccc2c(c1)C(=O)OC21c2ccc(O)cc2Oc2cc(O)ccc21)[C@@H](C)O)[C@@H](C)CC)[C@@H](C)O)[C@@H](C)CC)[C@@H](C)CC)[C@@H](C)CC)[C@@H](C)CC)[C@@H](C)CC)C(=O)N[C@@H](Cc1ccccc1)C(=O)NCC(=O)N[C@H](C(=O)N[C@@H](CCCCN)C(=O)N[C@@H](CCCCN)C(=O)N[C@@H](CC(C)C)C(=O)N[C@@H](CCCNC(=N)N)C(N)=O)[C@@H](C)O
Broadly, the Kd is the equilibrium constant for the complex coming apart. Low readings indicate higher affinity, high ones lower affinity. For the molecule B1, the Kd in assay [1] was at least 1000 µM; in assay [2], 191 ± 29.4 µM.
